Results from the supplement of paper PMC9170038.

Columns and labels:
MS2 coat protein [1] = experiment: apparent KD of MS2 coat protein, switch OFF state (with FMN for OFF switches, without FMN for ON switches); designed switch direction (-1 OFF switch, 1 ON switch): -1; higher = weaker reporter binding; settings: FMN input: 0 or 200 uM; Eterna round: R93 (includes R88 designs)
Procedure, shortened: (§1)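 Binding of SNAP-549-labelled MS2 coat protein was measured on designed RNA switches transcribed on-chip from Illumina sequencing clusters. The protein rose in twofold steps from 0.7 or 1.5 nM to 3 µM, with 0.8–1.5 h per step early on and 10–20 min per step later, in 100 mM Tris-HCl pH 7.5, 80 mM KCl, 4 mM MgCl2, without or with constant ligand. Each design's apparent KD is the median of fits to its normalised cluster binding curves.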

MS2 coat protein [2] = experiment: apparent KD of MS2 coat protein, switch ON state; designed switch direction (-1 OFF switch, 1 ON switch): -1; higher = weaker reporter binding; settings: FMN input: 0 or 200 uM; Eterna round: R93 (includes R88 designs)
Procedure, shortened: as §1

MS2 coat protein [3] = experiment: apparent KD of MS2 coat protein; designed switch direction (-1 OFF switch, 1 ON switch): 1; higher = weaker reporter binding
Procedure, shortened: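 Three titration conditions were used: no input, 200 uM small-molecule ligand, and an oligonucleotide input. In each, SNAP-549-labelled MS2 coat protein was raised from 0.7 or 1.5 nM, doubling, to 3 µM over designed RNA switches transcribed on Illumina chips by stalled E. coli RNA polymerase. Curve fits of normalised cluster fluorescence gave values whose per-design median over clusters is the apparent KD.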

[4] = input ligand: microRNA oligo, concentration not stated

GAAAAUUGAGGAUAUACGAACAUGUCAAAAGACGUGAAGGGACAUGAGGAUCACCCAUGUAGAAGGCGAAAAAG [Mat - Exclusion 2 - JL mod - D93]
apparent KD of MS2 coat protein (MS2 coat protein [1]): 12.3 nM
apparent KD of MS2 coat protein (MS2 coat protein [2]): 32 nM

AACUGUACAGGAUAUACAUGAGGAUCACCCAUGUGAGAAUUAAGUGGCGAACCACAAAGUAGAAGGGUACAGGA [Mat - Exclusion 3 - JL mod - D16]
apparent KD of MS2 coat protein (MS2 coat protein [1]): 138 nM
apparent KD of MS2 coat protein (MS2 coat protein [2]): 50.3 nM

UAAAAGUGAGGAUAUGUCAAAAGUCACAAAAGUGACAAAAGACAGAAGGCACAUGAGGAUCACCCAUGUGAAAU [Mat - Exaclusion 4 - Eli mod - D56]
apparent KD of MS2 coat protein (MS2 coat protein [1]): 32.2 nM
apparent KD of MS2 coat protein (MS2 coat protein [2]): 23.3 nM

AAAAAACAUGAGGAUCACCCAUGUCAGGAUAUCGAAAAAUAAAUAAAAAUAAAAUAAACGAGAAGGGACAAAAA [May 11]
apparent KD of MS2 coat protein (MS2 coat protein [1]): 44.7 nM
apparent KD of MS2 coat protein (MS2 coat protein [2]): 39.8 nM

AAGAAGUGAGGAUAUACAUGAACGAAAAAAAAAAAGAGCAUGUAGAAGGCACAUGAGGAUCACCCAUGUCAAAA [Georg Simmel]
apparent KD of MS2 coat protein (MS2 coat protein [1]): 27.8 nM
apparent KD of MS2 coat protein (MS2 coat protein [2]): 29.3 nM

AACAAGACAGGAUAUACAUGAGGAUCACCCAUGUCACAAUAAAGCAGCGUAACACAAAGUAGAAGGGUCAUGGA [Ruby 9]
apparent KD of MS2 coat protein (MS2 coat protein [1]): 71.5 nM
apparent KD of MS2 coat protein (MS2 coat protein [2]): 83.3 nM

CUCUUGUCAGGAUAUUCAAGAAAAGAAGAGAAAGAAAAGAAGAAGAAGGGACAUGAGGAUCACCCAUGUAAGAA [EteRNA is fun!]
apparent KD of MS2 coat protein (MS2 coat protein [1]): 67.2 nM
apparent KD of MS2 coat protein (MS2 coat protein [2]): 52.4 nM

AAAAAACAUGAGGAUCACCCAUGUAAGGAUAUGUAAAAUAAAAGAAAAAUAAAGAAAAGCAGAAGGUACAUGGA [JL wbt mod 15]
apparent KD of MS2 coat protein (MS2 coat protein [1]): 91.1 nM
apparent KD of MS2 coat protein (MS2 coat protein [2]): 54.9 nM

AACAUACAUGAGGAUCACCCAUGUUAGGAUAUGCCGGGUUAGAGCCAACUAAAAAACCGUAGAAGGGACGAAAA [Bilbo Confounded 10 - Jieux - Exclusion 1]
apparent KD of MS2 coat protein (MS2 coat protein [1]): 28.2 nM
apparent KD of MS2 coat protein (MS2 coat protein [2]): 30.7 nM

AAGAAACAUGAGGAUCACCCAUGUCAGGAUAUCUAAAAGAAAAGAAAAGAAAGAAGAAAGAGAAGGGACAAAGG [Neferirkare]
apparent KD of MS2 coat protein (MS2 coat protein [1]): 61.3 nM
apparent KD of MS2 coat protein (MS2 coat protein [2]): 39.2 nM

AAAAAAAGAGGAUAUACGUACAUGUCAAAAGACGUGAAGGGACAUGAGGAUCACCCAUGUAGAAGGUUUAAAAA [JL Wide Open 30]
apparent KD of MS2 coat protein (MS2 coat protein [1]): 16.3 nM
apparent KD of MS2 coat protein (MS2 coat protein [2]): 35.5 nM

CAUUCACAUGAGGAUCACCCAUGUAAGGAUAUCGAAAUAUAACUAAUCAAUAAACAAACGAGAAGGUACAAAAA [Exclusion 1 design 10]
apparent KD of MS2 coat protein (MS2 coat protein [1]): 23.8 nM
apparent KD of MS2 coat protein (MS2 coat protein [2]): 33.7 nM

AAAAAUCGAGGAUAUACAUGAGGAUCACCCAUGUCAGAAAAUGACUACACAAAAGAAAGUAGAAGGCGAUAAAA [Ex 3 May 18]
apparent KD of MS2 coat protein (MS2 coat protein [1]): 30.3 nM
apparent KD of MS2 coat protein (MS2 coat protein [2]): 29.4 nM

AUAAAGACAGGAUAUACAUGAGGAUCACCCAUGUAAAAAAAAAAAUGAUCCUCAAAAAGUAGAAGGGUCAAUAA [JR_Exc003_Sub015]
apparent KD of MS2 coat protein (MS2 coat protein [1]): 155 nM
apparent KD of MS2 coat protein (MS2 coat protein [2]): 78.7 nM

AACAGACAUGAGGAUCACCCAUGUAAGGAUAUCCAAAACGAUAAAACAAGAAUGACAGGGAGAAGGUACAGCAA [JR_Exc001_Sub007]
apparent KD of MS2 coat protein (MS2 coat protein [1]): 49 nM
apparent KD of MS2 coat protein (MS2 coat protein [2]): 53.6 nM

AAAAAGAGAGGAUAUACAUGAGGAUCACCCAUGUGACAUUAAAUAAAUAAAAUAAAGUGUAGAAGGCUCAAAAA [65%, Moding Exclusion3-cac2, 23]
apparent KD of MS2 coat protein (MS2 coat protein [1]): 136 nM
apparent KD of MS2 coat protein (MS2 coat protein [2]): 38.1 nM

AGAAUACAUGAGGAUCACCCAUGUGAGGAUAUCAAAAGAAAAAGAAAAGAAAAGAAAAUGAGAAGGCACAAAAG [EX 1 May 14]
apparent KD of MS2 coat protein (MS2 coat protein [1]): 51.7 nM
apparent KD of MS2 coat protein (MS2 coat protein [2]): 48.3 nM

AAAAAACAUGAGGAUCACCCAUGUGAGGAUAUGCAGCGAAUAAAGAAAGAAGAAAGCAGCAGAAGGCACACCAA [Amethyst 78]
apparent KD of MS2 coat protein (MS2 coat protein [1]): 44.1 nM
apparent KD of MS2 coat protein (MS2 coat protein [2]): 26.4 nM

CGUUGGCGAGGAUAUACAUGAGGAUCACCCAUGUGAGAGAAAAAAGUGAGAAAGAAAAGUAGAAGGCGCUGACA [salish99-ex3-11]
apparent KD of MS2 coat protein (MS2 coat protein [1]): 264 nM
apparent KD of MS2 coat protein (MS2 coat protein [2]): 45.3 nM

GUUAUGUGAGGAUAUAUGUAGGAAACUACAUUAAGGGUAUCACAUGAGGAUCACCCAUGUAGAAGGCGCGUAGC [Ex2Try2_Neo]
apparent KD of MS2 coat protein (MS2 coat protein [1]): 256 nM
apparent KD of MS2 coat protein (MS2 coat protein [2]): 283 nM

CCUAUGUCAGGAUAUCAGUAGUAAAAAAAAAAAAUUACUACUGAGAAGGGACAUGAGGAUCACCCAUGUACCUU [EX4 310: Super Stable 10]
apparent KD of MS2 coat protein (MS2 coat protein [1]): 17.8 nM
apparent KD of MS2 coat protein (MS2 coat protein [2]): 25.5 nM

AGCACGUCAGGAUAUACGAACACAAAGGGUAACAACAAGGGACAUGAGGAUCACCCAUGUAGAAGGGACUAGCA [Diamond 96]
apparent KD of MS2 coat protein (MS2 coat protein [1]): 61.9 nM
apparent KD of MS2 coat protein (MS2 coat protein [2]): 58.2 nM

AAAAAGUCAGGAUAUGUGAAAAAAAAAAAAAAAAAAAAAAAACAGAAGGGACAUGAGGAUCACCCAUGUAAAAA [water's exclusion 4 2nd]
apparent KD of MS2 coat protein (MS2 coat protein [1]): 46.4 nM
apparent KD of MS2 coat protein (MS2 coat protein [2]): 60 nM

AAAAAGUGAGGAUAUAGCAAAGGUCACGAAAGUGACAAAGGCUAGAAGGCACAUGAGGAUCACCCAUGUCCAAA [Fiskers Exclusion 4 D2 63% 2]
apparent KD of MS2 coat protein (MS2 coat protein [1]): 55.6 nM
apparent KD of MS2 coat protein (MS2 coat protein [2]): 24.7 nM

ACAGUUACAGGAUAUACAUAGGAAAAAAAAAAAAAAAUUCAACAUGAGGAUCACCCAUGUAGAAGGGUAACUGA [Ex2 Design 173: Random 2B]
apparent KD of MS2 coat protein (MS2 coat protein [1]): 144 nM
apparent KD of MS2 coat protein (MS2 coat protein [2]): 93.3 nM

AGCUAGUCAGGAUAUGCAUGAAUGUCAAAAGACGUAAAGGGACAUGAGGAUCACCCAUGUAGAAGGGACUAGCA [JL In the Red 4?]
apparent KD of MS2 coat protein (MS2 coat protein [1]): 277 nM
apparent KD of MS2 coat protein (MS2 coat protein [2]): 120 nM

AAAGUACAUGAGGAUCACCCAUGUCAGGAUAUCGUGGCGGGAAAAACCGGGAAACGCACGAGAAGGGACAAAAA [EX1 Malc#18 Mod 13 - Jieux - Exclusion 1]
apparent KD of MS2 coat protein (MS2 coat protein [1]): 42 nM
apparent KD of MS2 coat protein (MS2 coat protein [2]): 36.2 nM

CUCUUGUGAGGAUAUAGAAGAAAAGAAAAGAAAGAAAAGAACUAGAAGGCACAUGAGGAUCACCCAUGUAAGAA [EteRNA is fun!]
apparent KD of MS2 coat protein (MS2 coat protein [1]): 67.7 nM
apparent KD of MS2 coat protein (MS2 coat protein [2]): 38.7 nM

AAAACGGCAGGAUAUACAGAAGAGAUCACGAAAAAAAAAAAACAUGAGGAUCACCCAUGUAGAAGGGCCAAAAA [Ex2 Malc#4]
apparent KD of MS2 coat protein (MS2 coat protein [1]): 66.3 nM
apparent KD of MS2 coat protein (MS2 coat protein [2]): 117 nM

GAAAAGUGAGGAUAUGUCAAAAGUCACAAAAGUGACAAAAGACAGAAGGCACAUGAGGAUCACCCAUGUGAAAA [Mat - Exaclusion 4 - Eli mod - D55]
apparent KD of MS2 coat protein (MS2 coat protein [1]): 43.8 nM
apparent KD of MS2 coat protein (MS2 coat protein [2]): 24.2 nM

GAUAGUGAAGGAUAUACUGGAGGAGUGCGAUAGAAGCAAGAACAUGAGGAUCACCCAUGUAGAAGGUCAGAAGU [JR_Exc002_Sub1224]
apparent KD of MS2 coat protein (MS2 coat protein [1]): 23.2 nM
apparent KD of MS2 coat protein (MS2 coat protein [2]): 25.5 nM

AAUAGUGAAGGAUAUACAGGAGAAGUACGAUAAAAGAAAGAACAUGAGGAUCACCCAUGUAGAAGGUCAGAAGU [JR_Exc002_Sub1228]
apparent KD of MS2 coat protein (MS2 coat protein [1]): 26.3 nM
apparent KD of MS2 coat protein (MS2 coat protein [2]): 33.6 nM

AAUUAAGAUUGAGGAUAUCACGUCGAUUAGACGUGAGAAGGCGAUCAUAACAUGAGGAUCACCCAUGUAUUACAUGAAUUAAUU [SSNG1/5-B2] (Eterna round: R96, puzzle: Same State NG 1)
apparent KD of MS2 coat protein (MS2 coat protein [3]; input ligand: FMN 200 uM): 31.9 nM
apparent KD of MS2 coat protein (MS2 coat protein [3]; [4]): 26.2 nM
apparent KD of MS2 coat protein (MS2 coat protein [3]; input ligand: none): 36.6 nM

AUACCGUGCCAAGGAUAUGGUGUAAACACAUGAGGAUCACCCAUGUCAGAGAGUCGAGCGACUAGCUAGAAGGUGGUAUGGGAA [Eternabot solution 9] (Eterna round: R96, puzzle: Same State NG 2)
apparent KD of MS2 coat protein (MS2 coat protein [3]; input ligand: FMN 200 uM): 112 nM
apparent KD of MS2 coat protein (MS2 coat protein [3]; [4]): 149 nM
apparent KD of MS2 coat protein (MS2 coat protein [3]; input ligand: none): 393 nM

GCUUCACAUGAGGAUCACCCAUGUCUUCGGAGUCGAGGAUAUGGUAACUGUAAACAGUUGCCAGAAGGCGAGGAGC [SS1 - Son of Teenbexe v9] (puzzle: Same State 1)
apparent KD of MS2 coat protein (MS2 coat protein [3]; Eterna round: R95, input ligand: microRNA oligo, concentration not stated): 54.6 nM

UUAAUAAUGAUAGGAUAUACAUGAGGAAUCCUCGUAGAAGGAUCAUGACAUGAGGAUCACCCAUGUAACGCUCAGAAGAGCGUA [Mat - Same State NG 1 - JL mod - D43] (Eterna round: R96, puzzle: Same State NG 1)
apparent KD of MS2 coat protein (MS2 coat protein [3]; input ligand: FMN 200 uM): 738 nM
apparent KD of MS2 coat protein (MS2 coat protein [3]; [4]): 30.9 nM
apparent KD of MS2 coat protein (MS2 coat protein [3]; input ligand: none): 516 nM
